Test results taken from patent US20250108091A1, “PROTEIN FORMULATION, PREPARATION METHOD THEREFOR AND USE THEREOF” (BEIJING LIANGYUAN BIO-SCIENCE, LLC, priority 2022, published 2025).

How the values were obtained:
IL-2 protein = molecular target: T1, IL-2 protein (Homo sapiens, UniProt P60568, C145S); assay: Isothermal titration calorimetry (ITC), interaction with IL-2; assay type: binding; conditions: SDS with IL-2, 7.69 mM sodium phosphate buffer, 25° C.; read-out: equilibrium dissociation constant Kd
T1 construct: made in house; host or cells: Escherichia coli
T1 sequence (P60568 21-153 C145S): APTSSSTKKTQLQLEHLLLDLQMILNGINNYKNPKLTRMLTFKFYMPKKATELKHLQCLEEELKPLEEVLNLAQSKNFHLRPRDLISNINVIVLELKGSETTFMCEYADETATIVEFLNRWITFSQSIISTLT
Procedure: (1) Preparation of samples: • A. PEG2000-DSPE solution: dissolved in 10 mM sodium acetate buffer (pH=5.5), with a concentration of 0.5 mM; • B. SDS solution: dissolved in 7.69 mM sodium phosphate buffer (pH=7.6), with a concentration of 1.73 mM; • C. IL-2 solution: dissolved in 10 mM sodium acetate buffer (pH=5.5), with a concentration of 0.005 mM; • D. IL-2 solution: dissolved in 7.69 mM sodium phosphate buffer (pH=7.0), with a concentration of 0.0164 mM.
10 The MicroCal ITC 200 isothermal titration calorimeter and its supporting operating software from Malvern Panalytical Company were used. Refer to the table below for specific parameter settings:
(3) To determine the interaction between PEG2000-PE and IL-2, 40 μl sample A was added to the syringe, and 250 μl sample C was added to the sample cell. To determine the interaction between SDS and IL-2, 40 μl sample B was added to the syringe, and 250 μl sample D was added to the cell. […] After the reaction was completed, the measured heat change was integrated and subjected to reaction curve fitting (FIG. 4) to calculate various parameters of the interaction between the two samples, wherein the K value measured in the ITC is the binding constant, with a unit of M-1, and its reciprocal is the dissociation constant Kd of the two substances, with a unit of M. The smaller the Kd value, the stronger the affinity between the two substances.

[1] = in serum in vivo; cited from earlier work
βγ dimer = molecular target: T2, βγ dimer (Homo sapiens, UniProt P14784+P31785); conditions: medium affinity; cited from earlier work
T2 sequence (P14784 27-551): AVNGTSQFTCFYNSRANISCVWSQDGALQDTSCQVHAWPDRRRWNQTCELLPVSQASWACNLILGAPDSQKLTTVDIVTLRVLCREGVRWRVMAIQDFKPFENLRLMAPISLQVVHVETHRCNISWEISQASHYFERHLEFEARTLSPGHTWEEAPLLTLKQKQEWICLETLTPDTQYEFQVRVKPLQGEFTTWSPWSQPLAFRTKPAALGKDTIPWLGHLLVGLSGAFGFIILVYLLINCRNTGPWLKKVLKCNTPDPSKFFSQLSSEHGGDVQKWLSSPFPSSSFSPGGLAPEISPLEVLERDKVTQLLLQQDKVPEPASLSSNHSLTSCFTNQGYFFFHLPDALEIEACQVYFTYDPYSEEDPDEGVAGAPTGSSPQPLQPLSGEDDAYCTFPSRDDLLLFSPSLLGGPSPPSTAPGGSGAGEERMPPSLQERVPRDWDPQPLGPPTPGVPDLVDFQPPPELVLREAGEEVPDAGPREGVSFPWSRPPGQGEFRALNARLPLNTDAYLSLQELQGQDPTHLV
T2 sequence (P31785 23-369): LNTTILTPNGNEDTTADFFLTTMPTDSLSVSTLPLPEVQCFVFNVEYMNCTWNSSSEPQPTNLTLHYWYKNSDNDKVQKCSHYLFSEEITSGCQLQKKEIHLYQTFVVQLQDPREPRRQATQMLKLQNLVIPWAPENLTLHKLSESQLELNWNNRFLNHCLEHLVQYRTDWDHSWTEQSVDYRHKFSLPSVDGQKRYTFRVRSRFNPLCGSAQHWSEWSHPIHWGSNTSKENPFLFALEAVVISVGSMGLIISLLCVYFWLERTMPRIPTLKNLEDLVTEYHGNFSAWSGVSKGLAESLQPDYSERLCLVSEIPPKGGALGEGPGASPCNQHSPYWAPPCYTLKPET

## CCCCCCCCCCCCOS(=O)(=O)[O-].[Na+] [SDS, sodium dodecyl sulfate]
IL-2 protein
  Kd: ~37.3 µM

## IL2: T cell growth factor, glycoprotein of four α-helices, molecular weight 15.5 Kd
[1]
  half-life: 10 to 85 min
βγ dimer
  Kd: ~0.001 µM
